# Experimental data from patent publication US20180271975A1 (MODERNATX, published 2018).
# T1: hCMV glycoprotein H (gH) (human cytomegalovirus (Human …, UniProt Q6SW67 24-742))
# T1 construct: also called envelope glycoprotein H
# T1 sequence: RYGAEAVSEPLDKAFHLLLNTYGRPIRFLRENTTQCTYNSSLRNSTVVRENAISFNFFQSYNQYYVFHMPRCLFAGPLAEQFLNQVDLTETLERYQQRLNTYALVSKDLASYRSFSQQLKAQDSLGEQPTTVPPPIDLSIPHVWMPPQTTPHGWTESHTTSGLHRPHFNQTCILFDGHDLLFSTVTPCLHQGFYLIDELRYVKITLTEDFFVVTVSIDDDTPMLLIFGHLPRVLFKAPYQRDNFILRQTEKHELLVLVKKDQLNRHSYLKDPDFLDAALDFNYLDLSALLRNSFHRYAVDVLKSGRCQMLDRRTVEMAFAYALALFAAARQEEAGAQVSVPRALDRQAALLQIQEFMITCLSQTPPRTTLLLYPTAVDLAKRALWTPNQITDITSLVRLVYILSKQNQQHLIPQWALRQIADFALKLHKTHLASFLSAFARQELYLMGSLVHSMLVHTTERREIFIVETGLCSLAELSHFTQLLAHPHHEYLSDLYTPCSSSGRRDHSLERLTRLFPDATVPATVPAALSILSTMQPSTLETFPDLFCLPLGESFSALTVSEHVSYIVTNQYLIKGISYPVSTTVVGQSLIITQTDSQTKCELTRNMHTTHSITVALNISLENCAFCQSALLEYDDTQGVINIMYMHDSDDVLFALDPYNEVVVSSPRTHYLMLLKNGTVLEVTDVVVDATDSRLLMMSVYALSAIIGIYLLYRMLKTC
# B1: hCMV glycoprotein L (gL) (other)
# chain: AAVSVAPTAAEKVPAECPELTRRCLLGEVFEGDKYESWLRPLVNVTGRDGPLSQLIRYRPVTPEAANSVLLDEAFLDTLALLYNNPDQLRALLTLLSSDTAPRWMTVMRGYSECGDGSPAVYTCVDDLCRGYDLTRLSYGRSIFTEHVLGFELVPPSLFNVVVAIRNEATRTNRAVRLPVSTAAAPEGITLFYGLYNAVKEFCLRHQLDPPLLRHLDKYYAGLPPELKQTRVNLPAHSRYGPQAVDAR
# Molecular target: T1, hCMV glycoprotein H (gH)
# Assay: co-expression in HeLa cells, surface gH read by FACS with 3G16
binder,measurement,value
B1,binding result,binds
